The results in this text go back to patent publication US20180230200A1 (CITY OF HOPE, published 2018).

One assay concerns the target gH of HCMV strain TR (human cytomegalovirus strain TR). Put plainly: cell-based or functional assay.
For the next assay, the target named is gH of HCMV strain TB40/E (human cytomegalovirus strain TB40/E). Nature of the assay: cell-based or functional assay.
Assay [1] has as its target T1, UL128 expressed from MVA in BHK-21 cells (human cytomegalovirus, UniProt P16837 28-171).
T1 construct: whole, on cells
T1 sequence: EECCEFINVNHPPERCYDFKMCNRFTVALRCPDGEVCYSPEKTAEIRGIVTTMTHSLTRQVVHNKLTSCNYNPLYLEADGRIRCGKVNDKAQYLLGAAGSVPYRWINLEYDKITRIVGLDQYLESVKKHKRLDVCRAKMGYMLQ
Put plainly: intracellular FC, MVA-infected BHK-21.
Description: (§1) NAb subunit specificity was evaluated by staining BHK-21 cells infected with different MVA recombinants. One or more vectors were used to co-infect BHK-21 at an MOI of 5. […] Four hours post infection cells were fixed and permeabilized using Cytofix/Cytoperm solution (BD Biosciences). NAbs (1 mg/ml) were diluted 1:500 in perm/wash buffer (BD) and added to the cells for 1 hour at 4° C. […] Cells were washed again and resuspended in PBS/0.1% BSA. Fifteen thousand events were collected using the Gallios Flow Cytometer (Beckman Coulter, Miami, Fla., USA) and analyzed with FlowJo Software (Tree Star, Ashland, Oreg., USA). Uninfected cells and cells infected with MVA-Venus were used as controls. GFP expression was analyzed for confirming MVA infection since all the constructs contain a GFP expression cassette (36, 62).
(§2) In order to determine the antigen specificity of the vaccine-derived NAbs, intracellular flow cytometry (FC) staining of permeabilized BHK-21 cells infected with MVA expressing single subunits or combinations of two or more subunits of the PC was evaluated.

The target in assay [2] is T2, UL130 expressed from MVA in BHK-21 cells (human cytomegalovirus, UniProt P16772 1-214).
T2 construct: whole, on cells
Put plainly: intracellular FC, MVA-infected BHK-21.
Description: as §1, §2

The target in assay [3] is T3, UL131A expressed from MVA in BHK-21 cells (human cytomegalovirus, UniProt F5HET4 19-129).
T3 construct: whole, on cells
Nature of the assay: intracellular FC, MVA-infected BHK-21.
Description: as §1, §2

Assay [4] deals with T4, UL128/UL130 co-expressed from MVA in BHK-21 cells (human cytomegalovirus, UniProt P16837 28-171; P16772 1-214).
T4 construct: whole, on cells
Put plainly: intracellular FC, MVA-infected BHK-21.
Description: as §1, §2

Assay [5] deals with T5, UL128/UL131A co-expressed from MVA in BHK-21 cells (human cytomegalovirus, UniProt P16837 28-171; F5HET4 19-129).
T5 construct: whole, on cells
Put plainly: intracellular FC, MVA-infected BHK-21.
Description: as §1, §2

The target of assay [6] is T6, UL130/UL131A co-expressed from MVA in BHK-21 cells (human cytomegalovirus, UniProt P16772 1-214; F5HET4 19-129).
T6 construct: whole, on cells
Put plainly: intracellular FC, MVA-infected BHK-21.
Description: as §1, §2

Assay [7] addresses T7, UL128/UL130/UL131A co-expressed from MVA in BHK-21 cells (human cytomegalovirus, UniProt P16837 28-171; P16772 1-214; F5HET4 19-129).
T7 construct: whole, on cells
Nature of the assay: intracellular FC, MVA-infected BHK-21.
Description: as §1, §2

The target of assay [8] is T8, gH/gL/UL128/UL130/UL131A pentamer complex expressed from MVA-PC in BHK-21 cells (human cytomegalovirus, UniProt P12824 24-743; P16832 31-278; P16837 28-171; P16772 1-214; F5HET4 19-129).
T8 construct: whole, on cells
Nature of the assay: FC, biotinylated NAb titrated on MVA-PC-infected BHK-21 (cell surface PC).

Assay [9] deals with T8, gH/gL/UL128/UL130/UL131A pentamer …. Put plainly: FC competition, MVA-PC BHK-21; unlabelled row Ab; competitor: biotinylated 2-80.
For assay [10] the target is unchanged. Put plainly: FC competition, MVA-PC BHK-21; unlabelled row Ab; competitor: biotinylated 21E9.
Assay [11] shares this target. Nature of the assay: FC competition, MVA-PC BHK-21; unlabelled row Ab; competitor: biotinylated AP86.
The target is the same in assay [12]. Put plainly: FC competition, MVA-PC BHK-21; unlabelled row Ab; competitor: biotinylated 18F10.
Assay [13] shares this target. Nature of the assay: FC competition, MVA-PC BHK-21; unlabelled row Ab; competitor: biotinylated 62-11.

B1: 21E9 (antibody, V domains shown)
VH: QIQLVQSGPELKKPGETVKISCKASGYTFTIYGMNWVKQAPGKGLKWMGWINTYTGEPTYADDFRGRFAFSLETSASTAYLQINNLKNEDTATYFCARKGYYGSSGYFDYWGQGTTLTVSS
VL: SIVMTQTPKFLLVSAGDRVTITCKASQSVSNDVSWYQQKPGQSPKLLIYYASNRYTGVPDRFTGSGYGTDFTFTISTVQAEDLAVYFCQQDYSSPWTFGGGTKLEIK
notes: also called NAb 21E9
Turning to B1, the “IC50, inhibition of TR cell-to-cell spread in ARPE-19” value in the assay with gH of HCMV strain TR came to 262 µg/mL. Further, in the assay with gH of HCMV strain TR, the “IC50, neutralization of TR infection of ARPE-19” value was determined as 0.926 µg/mL. In the assay with gH of HCMV strain TR, the “IC50, neutralization of TR infection of HUVEC” value (shortened to “IC50 … of TR infection of HUVEC”) stood at 2.92 µg/mL. Besides, the “IC50, neutralization of TR infection of MRC-5” value (from here on “IC50 … of TR infection of MRC-5”) in the assay with gH of HCMV strain TR stood at 4.14 µg/mL. The “IC50, inhibition of TB40/E cell-to-cell spread in ARPE-19” value with gH of HCMV strain TB40/E came to 157 µg/mL. In addition, in the assay with gH of HCMV strain TB40/E, the “IC50, neutralization of TB40/E infection of ARPE-19” value was 1.41 µg/mL. In addition, in the assay with gH of HCMV strain TB40/E, the “IC50, neutralization of TB40/E infection of CTB” value (“IC50, neutralization … of CTB” for short) came to 42.4 µg/mL. The “IC50, neutralization of TB40/E infection of HUVEC” value with gH of HCMV strain TB40/E turned out to be 2.37 µg/mL. In addition, the “IC50, neutralization of TB40/E infection of MRC-5” value with gH of HCMV strain TB40/E was 5.78 µg/mL. In addition, the binding result in assay [1], in [2], in assay [3], in assay [4], in assay [5] and in assay [6] was “no binding” throughout. Besides, the binding result in assay [7] was “no binding”. Moreover, the EC50 in assay [8] came out at 18 nM. Besides, the “Binding Inhibition (%)” value in assay [9] is 100%; in assay [10], 100%; in assay [11] it was 0%; in [12], 0%; in [13] it was 32%.

B2: 2-80 (antibody, V domains shown)
VH: QIQLVQSGPELKKPGETVKISCKASGYTFTNFGMNWVKQAPGKGLKWMGWINTYTGEPTYADDFKGRFAFSLETSASTASLQINNLKNEDTATYFCARRGDGLYSMDYWGQGTSVTVSS
VL: DIVLTQSPASLAVSLGQRATISCRASESIDSYGNSFMYWYQQKPGQPPKLLIYRASNLESGIPARFSGSGSRTDFTLTINPVEADDVATYYCQQSNEDPLTFGAGTKLELK
notes: also called NAb 2-80
Turning to B2, the “IC50, inhibition of TR cell-to-cell spread in ARPE-19” value with gH of HCMV strain TR was 398 µg/mL. Moreover, the “IC50, neutralization of TR infection of ARPE-19” value in the assay with gH of HCMV strain TR came to 2.12 µg/mL. Further, the “IC50 … of TR infection of HUVEC” value in the assay with gH of HCMV strain TR came out at 2.54 µg/mL. The “IC50 … of TR infection of MRC-5” value in the assay with gH of HCMV strain TR came out at 1.72 µg/mL. Moreover, the “IC50, inhibition of TB40/E cell-to-cell spread in ARPE-19” value with gH of HCMV strain TB40/E is over 400 µg/mL. Also, the “IC50, neutralization of TB40/E infection of ARPE-19” value with gH of HCMV strain TB40/E came out at 1.43 µg/mL. Besides, in the assay with gH of HCMV strain TB40/E, the “IC50, neutralization … of CTB” value was over 50 µg/mL. For the same molecule, in the assay with gH of HCMV strain TB40/E, the “IC50, neutralization of TB40/E infection of HUVEC” value is 1.41 µg/mL. In the assay with gH of HCMV strain TB40/E, the “IC50, neutralization of TB40/E infection of MRC-5” value was 1.6 µg/mL. The binding result in [1], in [2], in assay [3], in [4], in [5] and in assay [6] was “no binding” each time. Further, in assay [7], the binding result is reported as “no binding”. Also, the concentration giving a half-maximal response (EC50) in [8] turned out to be 2.8 nM. The “Binding Inhibition (%)” value was found to be 100% in assay [9]; 100% in assay [10]; 0% in assay [11]; 0% in assay [12]; 43% in assay [13].

B3: 62-11 (antibody, V domains shown)
VH: QVQLQQPGAELVRPGASVKLSCKASGYTFTSYWMNWVKQRPGQGLEWIGMIDPSDSETHYNQMFKDKATLTVDKSSSTAYMQLSSLTSEDSAVYYCSNGYSSFAYWGQGTLVTVSV
VL: DVQMTQTTSSLSASLGDRVTISCSASQGISNYLNWYQQKPDGTVKLLIYDTSSLHSGVPSRFSGSGSGTDYSLTISNLEPEDIATYYCQQYSKLPYTFGGGTKLEIK
notes: also called NAb 62-11
Turning to B3, in the assay with gH of HCMV strain TR, the “IC50, inhibition of TR cell-to-cell spread in ARPE-19” value amounted to 395 µg/mL. The “IC50, neutralization of TR infection of ARPE-19” value with gH of HCMV strain TR came to 0.641 µg/mL. In addition, the “IC50 … of TR infection of HUVEC” value with gH of HCMV strain TR is 0.83 µg/mL. Moreover, the “IC50 … of TR infection of MRC-5” value in the assay with gH of HCMV strain TR came out at 3.35 µg/mL. In addition, the “IC50, inhibition of TB40/E cell-to-cell spread in ARPE-19” value in the assay with gH of HCMV strain TB40/E stood at 87 µg/mL. Moreover, in the assay with gH of HCMV strain TB40/E, the “IC50, neutralization of TB40/E infection of ARPE-19” value is 0.185 µg/mL. Moreover, the “IC50, neutralization … of CTB” value with gH of HCMV strain TB40/E was 2.76 µg/mL. Besides, the “IC50, neutralization of TB40/E infection of HUVEC” value with gH of HCMV strain TB40/E was 0.102 µg/mL. Also, the “IC50, neutralization of TB40/E infection of MRC-5” value with gH of HCMV strain TB40/E is 0.182 µg/mL. Besides, the binding result in [1], in assay [2], in assay [3], in [4], in assay [5] and in assay [6] was “no binding” each time. Besides, the binding result in assay [7] is listed as “no binding”. A half-maximal effect in assay [8] (EC50) was put at 1.7 nM. Also, the “Binding Inhibition (%)” value in assay [9] worked out at 54%; in assay [10] it was 46%; in [11] it was 0%; in assay [12], 0%; in [13] it was 100%.

B4: 62-100 (antibody, V domains shown)
VH: QVQLQQPGAELVRPGASVKLSCKASGYTFTSYWMNWVKQRPGQGLEWIGMIDPSDSETHYNQMFKDKATLTVDKSSSTAYMQLSSLTSEDSAVYYCSNGYSSFAYWGQGTLVTVSV
VL: DIVLTQSPATLSVTPGDSVSLSCRASQSISNNLHWYQQKSHESPRLLIKYASQSISGIPSRFSGSGSGTDFTLSINSVETEDFGKYVCQQSNSWPLTFGSGTKLEIK
notes: also called NAb 62-100
As for B4, the “IC50, inhibition of TR cell-to-cell spread in ARPE-19” value in the assay with gH of HCMV strain TR was determined as 337 µg/mL. Also, in the assay with gH of HCMV strain TR, the “IC50, neutralization of TR infection of ARPE-19” value is 2.13 µg/mL. Further, in the assay with gH of HCMV strain TR, the “IC50 … of TR infection of HUVEC” value is 1.03 µg/mL. Moreover, the “IC50 … of TR infection of MRC-5” value in the assay with gH of HCMV strain TR is 1.98 µg/mL. The “IC50, inhibition of TB40/E cell-to-cell spread in ARPE-19” value in the assay with gH of HCMV strain TB40/E is 103 µg/mL. In addition, the “IC50, neutralization of TB40/E infection of ARPE-19” value with gH of HCMV strain TB40/E came to 0.27 µg/mL. In addition, the “IC50, neutralization … of CTB” value with gH of HCMV strain TB40/E was determined as 3.62 µg/mL. The “IC50, neutralization of TB40/E infection of HUVEC” value with gH of HCMV strain TB40/E is 0.156 µg/mL. For the same molecule, the “IC50, neutralization of TB40/E infection of MRC-5” value with gH of HCMV strain TB40/E amounted to 0.293 µg/mL. Further, the binding result in assay [1], in assay [2], in [3], in assay [4], in assay [5] and in [6] was “no binding” in each case. The binding result in assay [7] was “no binding”. The same molecule showed an EC50 in assay [8] of 3.3 nM. For the same molecule, the “Binding Inhibition (%)” value in [9] came out at 57%; in [10], 51%; in assay [11], 0%; in assay [12], 0%; in assay [13], 100%.

What is called EC50 is the concentration giving half of the maximal effect. Low values mean an effect from little substance, high ones a need for much substance.
